Assay results as given in article PMC2654718.

Assays:
MBP-VDR-LBDmt (human) [1] = experiment: ITC
MBP-VDR-LBDmt (human) [2] = experiment: pull-down

| Substance | Kd (MBP-VDR-LBDmt (human) [1]) [nM] | dH (MBP-VDR-LBDmt (human) [1]) [kcal/mol] | stoichiometry N (MBP-VDR-LBDmt (human) [1]) | peptide concentration at which inhibition of SRC2-VDR binding was observed (MBP-VDR-LBDmt (human) [2]) [µM] |
| --- | --- | --- | --- | --- |
| SRC2-3 peptide, unlabeled | 174 | -6.7 | 1.02 |  |
| SRC3-1 peptide, unlabeled |  |  |  | > 50 |
| SRC2-3 peptide, Texas Red labeled | 285 | -2.2 | 0.93 |  |
